Source: paper PMC5501724, “Structural Basis for Specific Interaction of TGFβ Signaling Regulators SARA/Endofin with HD-PTP” (Structure(London, England:1993), 2017)
Residue numbers refer to the chain shown, from its start. “And” between values parts separate entries of the source, which are not always exact repeats. Equal values may be shown once. Values belong to the molecule of their own block, whether it stands above or below them. Ends that are not written are not given here.

Key:
[1] = target: T1, HD-PTPBro1-CC (1-714) (Homo sapiens, UniProt Q9H3S7); test: Biosensor (SPR) binding of peptides to HD-PTPBro1-CC; conditions: 10 mM HEPES pH 7.4, 150 mM NaCl, 0.05% Tween 20, 25°C; for Binding to HD-PTPBro1-CC (sensogram): compared with wild-type endofin peptide, result in words
T1 construct: HD-PTPBro1-CC (1-714) and AlixBro1 (1-359) were cloned in a pET28a vector; made in house; host or cells: E. coli BL21 (DE3)
T1 sequence (Q9H3S7 1-714): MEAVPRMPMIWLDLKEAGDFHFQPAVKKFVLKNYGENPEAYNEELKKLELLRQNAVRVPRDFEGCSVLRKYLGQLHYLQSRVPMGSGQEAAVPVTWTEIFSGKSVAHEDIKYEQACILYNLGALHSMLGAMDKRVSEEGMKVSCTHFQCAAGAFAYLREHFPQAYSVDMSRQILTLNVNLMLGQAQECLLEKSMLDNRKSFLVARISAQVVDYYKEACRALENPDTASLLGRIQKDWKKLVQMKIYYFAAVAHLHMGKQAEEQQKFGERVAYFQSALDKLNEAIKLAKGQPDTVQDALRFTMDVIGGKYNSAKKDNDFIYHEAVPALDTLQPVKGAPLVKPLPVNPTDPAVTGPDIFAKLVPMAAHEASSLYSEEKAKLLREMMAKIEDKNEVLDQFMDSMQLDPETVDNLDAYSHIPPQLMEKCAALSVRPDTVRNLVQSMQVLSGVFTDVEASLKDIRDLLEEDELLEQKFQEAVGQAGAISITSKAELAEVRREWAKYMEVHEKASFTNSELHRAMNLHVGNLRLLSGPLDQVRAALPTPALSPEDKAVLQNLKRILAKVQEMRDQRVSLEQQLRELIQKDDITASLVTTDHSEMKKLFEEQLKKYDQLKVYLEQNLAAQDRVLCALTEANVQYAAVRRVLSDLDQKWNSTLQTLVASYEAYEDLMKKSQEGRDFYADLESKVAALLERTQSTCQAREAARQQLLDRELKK
Method: (§1) Biosensor based binding experiments were performed using a ProteOn XPR36 surface Plasmon resonance instrument (Bio-Rad Laboratories). The ProteOn XPR36 is multiplex system that can be used to provide simultaneous flow of up to six analyte channels (A1-A6) over up to six ligand channels (L1-L6). The running buffer used was 10 mM HEPES pH 7.4, 150 mM NaCl, 0.05% Tween 20. Immobilization of His6-tagged HD-PTP and a negative control protein, His6-tagged MptpB, was performed on a HTE chip (Bio-Rad Laboratories) in the vertical orientation. Proteins were diluted in running buffer to a final concentration of 50-100 μg/ml and 150 μl was injected at a flow rate of 30 μl/min The immobilization level of proteins was typically 5000-8000 response unit (RU). All experiments were performed at 25°C. Synthetic peptides spanning the binding regions of CHMP4 A, B and C, and SARA and endofin, were obtained from Generon Ltd, UK. For equilibrium binding measurements these peptides were used as analytes. Peptide stocks were prepared in running buffer just prior the binding experiments. Peptides were injected (50 μl at 100 μl/min) in the horizontal orientation using five serially diluted peptide concentrations (channels A1-A5) alongside a buffer control (channel A6). Peptide concentrations were chosen to give a suitable spread of responses below and above half-maximal binding.
(§2) All the binding sensograms were collected, processed and analyzed using the integrated ProteOn Manager software (Bio-Rad Laboratories), using the equilibrium binding mode: Response = [A] ^∗ Rmax/([A] + KD), where [A] is the analyte concentration and Rmax is the maximum response. At least 3 independent replicates were performed for each experiment. Values in the text and figure legends indicate mean +/- SD (standard deviation).

[2] = target: T2, HD-PTPBro1 (Bro1 domain of HD-PTP, 1-361) (Homo sapiens, UniProt Q9H3S7); test: Biosensor (SPR) binding of peptides to HD-PTPBro1; conditions: 10 mM HEPES pH 7.4, 150 mM NaCl, 0.05% Tween 20, 25°C; for Binding to HD-PTPBro1 (sensogram): compared with wild-type endofin peptide, result in words
T2 construct: HD-PTPBro1 (1-361) was cloned in a pNIC28-Bsa4 vector; made in house; host or cells: E. coli BL21 (DE3)
T2 sequence (Q9H3S7 1-361): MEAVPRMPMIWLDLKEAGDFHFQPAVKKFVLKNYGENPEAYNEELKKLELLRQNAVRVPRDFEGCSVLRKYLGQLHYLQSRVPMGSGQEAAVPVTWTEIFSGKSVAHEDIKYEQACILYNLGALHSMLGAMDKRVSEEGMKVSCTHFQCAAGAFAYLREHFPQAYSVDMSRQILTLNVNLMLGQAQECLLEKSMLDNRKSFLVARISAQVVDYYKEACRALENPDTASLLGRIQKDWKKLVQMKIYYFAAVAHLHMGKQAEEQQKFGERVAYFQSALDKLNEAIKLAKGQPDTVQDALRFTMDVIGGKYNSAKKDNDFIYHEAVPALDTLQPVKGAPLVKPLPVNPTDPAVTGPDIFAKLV
Method: as §1, §2

[3] = target: T3, His6-HD-PTP_(Bro1) (1-361) (human, UniProt Q9H3S7 1-361); test: SPR; ProteOn XPR36; His6-tagged proteins immobilised on a HTE chip (5000-8000 RU); synthetic peptides as analytes, five concentrations; 10 mM HEPES pH 7.4, 150 mM NaCl, 0.05% Tween 20; 25°C; equilibrium binding fit; conditions: both partners purified
T3 construct: HD-PTP/PTPN23, Bro1 domain, residues 1-361; Immobilised by its His6 tag on the HTE chip; also called HD-PTP Bro1 domain; source: E. coli BL21 (DE3), purified (Nickel-beads, MonoQ, Superdex 200); not shown: His6, N-terminal, kept
T3 sequence (looked up): T2 sequence (Q9H3S7 1-361)

[4] = target: T4, His6-HD-PTP_(Bro1-CC) (1-714), bacterially expressed (human, UniProt Q9H3S7 1-714); test: as above; conditions: both partners purified
T4 construct: HD-PTP/PTPN23, Bro1 and coiled-coil domains, residues 1-714; also called His-HD-PTP; source: E. coli BL21 (DE3), purified (Nickel-beads, MonoQ, Superdex 200); not shown: His6, N-terminal, kept
T4 sequence (looked up): T1 sequence (Q9H3S7 1-714)

[5] = target: T4, His6-HD-PTP_(Bro1-CC) (1-714), …; test: co-IP; competition: GST-CHMP4B and His6-HD-PTP Bro1-CC as in the CHMP4B binding experiments, endofin 22-mer peptide (WT or L15P) added at 20 μM; immunoprecipitation with anti-His; conditions: both partners purified
[6] = target: T5, His6-HD-PTP_(Bro1-CC) T145K, bacterially expressed (human, UniProt Q9H3S7 1-714, T145K); test: co-IP; bacterially expressed GST-CHMP4B, full length or truncated (50 μg/ml), and His6-HD-PTP Bro1-CC (5 μg) in 200 μl IP2 buffer with 250 mM NaCl, 2 h at 4°C; immunoprecipitation with anti-His; conditions: both partners purified
T5 construct: HD-PTP/PTPN23, residues 1-714 with T145K; source: E. coli, bacterially expressed, purified; not shown: His6, N-terminal, kept
T5 sequence (looked up): T1 sequence (Q9H3S7 1-714) with T145K

[7] = target: T6, CHMP4A (Homo sapiens (Human), UniProt Q9BY43); test: SPR equilibrium, peptide analyte
T6 chain: PKVDEDEEALKQLAEWVS

[8] = target: T7, CHMP4C (Homo sapiens (Human), UniProt Q96CF2); test: SPR equilibrium, peptide analyte
T7 chain: QRAEEEDDDIKQLAAWAT

[9] = target: T8, CHMP4B (Homo sapiens (Human), UniProt Q9H444); test: SPR equilibrium, peptide analyte
T8 chain: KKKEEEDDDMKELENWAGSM

[10] = target: T9, Endofin (Homo sapiens (Human), UniProt Q7Z3T8); test: SPR equilibrium, peptide analyte
T9 chain: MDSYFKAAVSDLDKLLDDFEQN

[11] = listed as endofin L15 to proline
[12] = listed as endofin peptide containing the L15P mutation

Binding to HD-PTPBro1 (sensogram) [2]: poor binding
Kd ([2]; poor binding, read-out: Binding (affinity bound) to HD-PTPBro1): > 1500 µM
Molecule: KAAVSDLDKLLDDFEQN
Binding to HD-PTPBro1-CC (sensogram) [1]: poor binding
Kd ([1]; poor binding, read-out: Binding (affinity bound) to HD-PTPBro1-CC): > 1500 µM

Binding to HD-PTPBro1 (sensogram) [2, 11]: abolishes binding
Binding to HD-PTPBro1 (sensogram) [2, 12]: did not bind
Molecule: endofin1–22(L15P): endofin 22-mer peptide containing the L15P mutation (MDSYFKAAVSDLDKPLDDFEQN)
Binding to HD-PTPBro1-CC (sensogram) [1, 11]: abolishes binding
Binding to HD-PTPBro1-CC (sensogram) [1, 12]: did not bind

Kd [3]: 85 µM
Molecule: KKKEEEDDDMKELENWAGSM [CHMP4B C-terminal peptide]

Kd [3]: 11.3 µM
B1: SARA 22-mer peptide (N-terminal 22 residues of SARA) (peptide, UniProt O95405 1-22, looked up)
peptide: MENYFQAEAYNLDKVLDEFEQN
notes: human SARA, N-terminal 22 residues; also called SARA peptide; equivalent region of SARA; source: synthetic peptide (Generon Ltd, UK)

Kd [3]: 132 µM
Molecule: PKVDEDEEALKQLAEWVS [CHMP4A C-terminal peptide]

Kd [4]: 2.7 µM
Kd [3]: 3.1 µM
B2: endofin 22-mer peptide (first 22 residues of endofin) (peptide, UniProt Q7Z3T8 1-22, looked up)
peptide: MDSYFKAAVSDLDKLLDDFEQN
notes: human endofin, first 22 residues; begins 1-MDSYF-5; also called endofin peptide; endofin_(1-22) (WT); source: synthetic peptide (Generon Ltd, UK)

binding result [5]: binds
binding result [6]: binds
B3: GST-CHMP4B (1-224), bacterially expressed (natural protein, human, UniProt Q9H444 1-224, looked up)
chain: MSVFGKLFGAGGGKAGKGGPTPQEAIQRLRDTEEMLSKKQEFLEKKIEQELTAAKKHGTKNKRAALQALKRKKRYEKQLAQIDGTLSTIEFQREALENANTNTEVLKNMGYAAKAMKAAHDNMDIDKVDELMQDIADQQELAEEISTAISKPVGFGEEFDEDELMAELEELEQEELDKNLLEISGPETVPLPNVPSIALPSKPAKKKEEEDDDMKELENWAGSM
notes: CHMP4B, residues 1-224, full length; In pGEX-4T1; also called CHMP4B-FL; full length GST-CHMP4B; source: E. coli C41 (DE3), purified (GSTrap HP)

Kd [4]: > 1500 µM
Kd [3]: > 1500 µM
B4: shorter endofin peptide lacking 1-MDSYF-5 (peptide)
chain: KAAVSDLDKLLDDFEQN
modifications: C-terminal limit not given; taken as residue 22, the end of the 22-mer endofin peptide

Kd [3]: 89 µM and 88 µM
Molecule: QRAEEEDDDIKQLAAWAT [CHMP4C C-terminal peptide]

Kd [7]: 132 µM
Kd [8]: 88 µM
Kd [9]: 85 µM
B5: HDPTP_Bro1 (protein)
chain: T2 sequence (Q9H3S7 1-361)

Kd [10]: > 12.5 µM
B6: ALIX_Bro1 (protein)
chain: MATFISVQLKKTSEVDLAKPLVKFIQQTYPSGGEEQAQYCRAAEELSKLRRAAVGRPLDKHEGALETLLRYYDQICSIEPKFPFSENQICLTFTWKDAFDKGSLFGGSVKLALASLGYEKSCVLFNCAALASQIAAEQNLDNDEGLKIAAKHYQFASGAFLHIKETVLSALSREPTVDISPDTVGTLSLIMLAQAQEVFFLKATRDKMKDAIIAKLANQAADYFGDAFKQCQYKDTLPKEVFPVLAAKHCIMQANAEYHQSILAKQQKKFGEEIARLQHAAELIKTVASRYDEYVNVKDFSDKINRALAAAKKDNDFIYHDRVPDLKDLDPIGKATLVKSTPVNVPISQKFTDLFEKMV
